Test results taken from paper PMC3605678 (The Journal of Biological Chemistry, 2013).

Experiments:
[1] = target: ERK5 kinase domain, ERK5-(1–431) (Homo sapiens, UniProt Q13164); assay: Fluorescence polarization; settings: FP-based binding affinity measurements
[2] = target: ERK2 (Homo sapiens, UniProt P28482); assay: FP-based binding affinity measurements with ERK2, direct titration
ERK2, sequence (P28482 whole entry): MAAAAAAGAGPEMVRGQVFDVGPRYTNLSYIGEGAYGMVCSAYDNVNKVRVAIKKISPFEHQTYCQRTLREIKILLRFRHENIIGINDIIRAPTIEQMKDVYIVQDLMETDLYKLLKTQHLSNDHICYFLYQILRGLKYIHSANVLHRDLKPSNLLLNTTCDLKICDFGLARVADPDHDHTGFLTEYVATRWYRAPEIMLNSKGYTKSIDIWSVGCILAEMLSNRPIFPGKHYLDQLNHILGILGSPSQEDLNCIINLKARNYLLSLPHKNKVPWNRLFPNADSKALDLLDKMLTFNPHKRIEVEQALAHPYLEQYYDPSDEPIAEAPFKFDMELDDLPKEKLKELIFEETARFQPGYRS

ERK5 kinase domain, ERK5-(1–431), sequence (Q13164 1-431): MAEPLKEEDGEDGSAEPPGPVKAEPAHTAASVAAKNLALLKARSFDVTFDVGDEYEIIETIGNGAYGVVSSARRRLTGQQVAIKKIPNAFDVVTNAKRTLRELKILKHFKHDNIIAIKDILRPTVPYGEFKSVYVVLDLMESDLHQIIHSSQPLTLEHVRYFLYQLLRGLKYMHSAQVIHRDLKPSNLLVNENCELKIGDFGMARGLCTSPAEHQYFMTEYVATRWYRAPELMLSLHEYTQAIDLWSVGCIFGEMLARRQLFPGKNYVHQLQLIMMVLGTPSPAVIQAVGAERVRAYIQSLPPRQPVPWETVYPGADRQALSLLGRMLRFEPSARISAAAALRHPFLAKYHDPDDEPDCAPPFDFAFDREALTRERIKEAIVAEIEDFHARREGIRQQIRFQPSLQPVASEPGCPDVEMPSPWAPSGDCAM

B1: PB1-D: MKK5 construct (16–130) comprised of the PB1 domain and the linear D-motif (protein, UniProt Q13163 16-130, looked up, fragment)
chain: VLVIRIKIPNSGAVDWTVHSGPQLLFRDVLDVIGQVLPEATTTAFEYEDEDGDRITVRSDEEMKAMLSYYYSTVMEQQVNGQLIEPLQIFPRACKPPGERNIHGLKVNTRAGPSQ
modifications: PB1 domain and D-motif
For B1, the “Binding to ERK5 (result in words)” value [1] was “submicromolar affinity” and the “Binding to ERK2 (result in words)” value [2] was “did not bind”.
